Assay results from patent US20240174744A1 (SCIRHOM, published 2024).

Key:
[1] = target: T1, human iRhom2 (inactive rhomboid protein 2, isoform 1), endogenously expressed on human cells (human, UniProt Q6PJF5 1-856); assay: cell-based or functional assay
T1 sequence: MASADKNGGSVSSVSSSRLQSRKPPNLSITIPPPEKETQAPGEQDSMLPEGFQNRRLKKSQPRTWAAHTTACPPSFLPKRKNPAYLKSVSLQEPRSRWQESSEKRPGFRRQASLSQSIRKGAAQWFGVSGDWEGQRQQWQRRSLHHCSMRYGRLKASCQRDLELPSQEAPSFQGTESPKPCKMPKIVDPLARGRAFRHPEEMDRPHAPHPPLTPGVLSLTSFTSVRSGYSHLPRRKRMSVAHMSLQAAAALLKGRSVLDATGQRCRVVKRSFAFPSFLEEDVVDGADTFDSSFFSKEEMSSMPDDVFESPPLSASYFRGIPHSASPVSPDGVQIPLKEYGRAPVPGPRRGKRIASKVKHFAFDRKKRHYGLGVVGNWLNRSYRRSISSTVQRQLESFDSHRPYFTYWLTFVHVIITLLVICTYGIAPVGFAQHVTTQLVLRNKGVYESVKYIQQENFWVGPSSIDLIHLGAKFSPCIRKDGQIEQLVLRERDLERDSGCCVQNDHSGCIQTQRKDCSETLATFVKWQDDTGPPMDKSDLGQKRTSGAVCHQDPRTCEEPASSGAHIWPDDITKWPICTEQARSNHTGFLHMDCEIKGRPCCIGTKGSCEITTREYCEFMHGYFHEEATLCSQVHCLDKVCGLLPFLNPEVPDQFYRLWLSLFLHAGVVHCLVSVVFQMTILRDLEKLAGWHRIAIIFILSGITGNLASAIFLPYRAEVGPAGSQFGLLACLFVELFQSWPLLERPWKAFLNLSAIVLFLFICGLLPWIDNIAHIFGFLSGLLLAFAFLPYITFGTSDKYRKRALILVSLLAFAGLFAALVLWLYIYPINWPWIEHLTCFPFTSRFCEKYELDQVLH

[2] = target: T2, dog iRhom2 full length wild type, C-terminally tagged with 3 consecutive copies of the T7 epitope (dog, UniProt Q00M95 1-827); assay: FACS on MEF-DKO-iR2 Dog cells, 3 µg/ml
T2 construct: whole, on cells; also called Dog-iR2-FL-WT-T7
T2 sequence: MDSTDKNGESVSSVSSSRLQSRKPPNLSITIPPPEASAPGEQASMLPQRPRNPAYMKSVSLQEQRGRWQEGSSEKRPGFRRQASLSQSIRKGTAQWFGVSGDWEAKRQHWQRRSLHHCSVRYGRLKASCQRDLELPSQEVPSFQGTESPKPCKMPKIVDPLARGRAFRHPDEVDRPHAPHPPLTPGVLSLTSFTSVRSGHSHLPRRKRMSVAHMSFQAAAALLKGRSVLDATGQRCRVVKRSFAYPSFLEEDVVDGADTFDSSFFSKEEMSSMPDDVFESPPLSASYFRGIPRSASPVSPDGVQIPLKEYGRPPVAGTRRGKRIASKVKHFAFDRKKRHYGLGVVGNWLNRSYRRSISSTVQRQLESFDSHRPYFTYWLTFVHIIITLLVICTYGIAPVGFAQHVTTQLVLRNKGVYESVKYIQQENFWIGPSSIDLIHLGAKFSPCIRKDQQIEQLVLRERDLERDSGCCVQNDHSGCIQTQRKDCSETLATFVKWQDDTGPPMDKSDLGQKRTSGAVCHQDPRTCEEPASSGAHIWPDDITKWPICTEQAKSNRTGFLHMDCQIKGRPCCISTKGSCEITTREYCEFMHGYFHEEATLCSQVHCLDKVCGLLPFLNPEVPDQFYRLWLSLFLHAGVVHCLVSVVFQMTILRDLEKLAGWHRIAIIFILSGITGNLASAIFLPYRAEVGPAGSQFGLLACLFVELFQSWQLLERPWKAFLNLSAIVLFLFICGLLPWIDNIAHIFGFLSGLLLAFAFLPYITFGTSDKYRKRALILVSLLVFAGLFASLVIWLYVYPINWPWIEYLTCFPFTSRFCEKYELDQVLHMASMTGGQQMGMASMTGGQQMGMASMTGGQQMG
Procedure: In brief, immortalized MEF-DKO-EV control cells, MEF-DKO-rhesus-iR2-FL-WT-T7 cells, MEF-DKO-cyno-iR2-FL-WT-T7 cells, MEF-DKO-dog-iR2-FL-WT-T7 cells and MEF-DKO-rabbit-iR2-FL-WT-T7 cells, as well as their respective iRhom1 counterparts, were harvested with 10 mM EDTA in PBS, washed and resuspended in FACS buffer (PBS, 3% FBS, 0.05% sodium azide), and seeded in Nunc U-bottom 96-well plates (Thermo Fisher Scientific, USA) at approximately 3×10⁵ cells per well. To pellet cells and remove supernatants, the plates were centrifuged at 1,500 rpm and 4° C. for 3 minutes. For primary staining, cells were resuspended in 100 μl per well of either FACS buffer alone (controls), mouse monoclonal anti-T7 IgG (Merck Millipore, USA) at 3 μg/ml FACS buffer or the antibodies of the present disclosure also at 3 μg/ml FACS buffer and incubated on ice for 1 hour. Afterwards, plates were centrifuged at 1,500 rpm and 4° C. for 3 minutes and washed twice with 200 μl per well of FACS buffer. For secondary staining, cells were spun down and resuspended in 100 μl per well of PE-conjugated goat anti-mouse IgG F(ab′)2 detection fragment (Dianova, Germany) diluted 1:100 in FACS buffer. Protected from light, the cell suspensions were incubated on ice for 1 hour. […] Finally, cells were resuspended in 150 μl per well of FACS buffer and analyzed using a BD Accuri™ C6 Plus flow cytometer (Becton Dickinson, Germany).

[3] = target: T3, human iRhom1, endogenously expressed on RH-30 cells (human, UniProt Q96CC6 1-855); assay: FACS on RH-30 cells (iRhom1-positive, not iRhom2-positive)
T3 construct: RH-30 cells are described as endogenously negative for iRhom2 but endogenously expressing iRhom1; also called NP_071895.3
T3 sequence: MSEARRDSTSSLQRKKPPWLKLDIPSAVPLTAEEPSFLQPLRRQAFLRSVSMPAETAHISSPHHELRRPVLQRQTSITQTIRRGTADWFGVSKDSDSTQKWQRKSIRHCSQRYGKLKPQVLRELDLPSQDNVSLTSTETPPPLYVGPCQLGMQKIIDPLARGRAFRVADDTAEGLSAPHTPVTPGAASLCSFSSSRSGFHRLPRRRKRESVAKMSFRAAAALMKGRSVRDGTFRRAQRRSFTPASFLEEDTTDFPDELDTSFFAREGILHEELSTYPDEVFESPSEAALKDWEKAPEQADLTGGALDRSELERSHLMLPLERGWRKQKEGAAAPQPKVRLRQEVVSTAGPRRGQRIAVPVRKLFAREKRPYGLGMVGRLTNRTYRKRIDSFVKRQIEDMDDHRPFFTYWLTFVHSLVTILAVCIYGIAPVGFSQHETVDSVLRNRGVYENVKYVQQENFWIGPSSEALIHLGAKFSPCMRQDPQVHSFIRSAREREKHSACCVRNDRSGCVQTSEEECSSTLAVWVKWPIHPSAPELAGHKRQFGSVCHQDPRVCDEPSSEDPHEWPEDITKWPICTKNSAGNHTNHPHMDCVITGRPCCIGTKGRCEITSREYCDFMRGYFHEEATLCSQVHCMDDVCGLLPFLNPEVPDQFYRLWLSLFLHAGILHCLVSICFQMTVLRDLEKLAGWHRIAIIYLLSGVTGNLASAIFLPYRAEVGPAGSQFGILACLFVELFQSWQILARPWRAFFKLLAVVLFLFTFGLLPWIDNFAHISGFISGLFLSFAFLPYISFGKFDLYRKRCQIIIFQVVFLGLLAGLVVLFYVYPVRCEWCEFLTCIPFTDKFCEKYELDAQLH

| Binder | inhibition of LPS-induced release of TNFα from PBMCs of rheumatoid arthritis patients, 1 µg/ml, chimeric antibody [1] [% inhibition] | inhibition of PMA-induced release of HB-EGF from PBMCs of rheumatoid arthritis patients, 1 µg/ml, chimeric antibody [1] [% inhibition] | inhibition of PMA-induced release of HB-EGF from THP-1 cells, 3 µg/ml [1] [% inhibition] | inhibition of PMA-induced release of HB-EGF from U-937 cells [1] [% inhibition] | inhibition of PMA-induced release of IL-6R from PBMCs of rheumatoid arthritis patients, 1 µg/ml, chimeric antibody [1] [% inhibition] | inhibition of PMA-induced release of IL-6R from U-937 cells, 3 µg/ml [1] [% inhibition] | inhibition of PMA-induced release of TNFα from U-937 cells, 3 µg/ml [1] [% inhibition] | binding result [2] | binding result [3] |
| --- | --- | --- | --- | --- | --- | --- | --- | --- | --- |
| chimeric version of antibody 22 (antibody, V domains shown) VH: QVTLKESGPGILQPSQTLSLTCSFSGFSLSTFGMGVGWIRQPSGKGLEWLAHIWWDDEKYYNSALKSRLTISKATSKNQVFLKIANVDTADTATYYCARISNYGSNYWYFNVWGTGTTVTVSS VL: QVVLTQSPALMSASPGEKVTMTCSAGSSVSYMYWYQQKPGSSPRVLIYDTSNLASGVPARFTGSGSGTSYSLTISRMEAEDAATYYCQQWNSYPLTFGAGTKLELK | 76.5 | 54.7 | 81.9 | 103 | 61.1 | 85.6 | 96.5 | – | – |
| chimeric version of antibody 42 (antibody, V domains shown) VH: QVTLKESGPGILQPSQTLSLTCSLSGFSLSTFGRGVGWIRQPSGKGLEWLAHIWWDDEKYYNPALKSRLTISKDTSKNQVFLRIANVDTADTATYYCARIQNYGSNYWYFDVWGTGTTVTVSS VL: LIVLTQSPAIMSASPGEKVTMTCGATSRISYMFWYQQKPGSSPRVLIYDTSNLASGVPVRFSGSGSGTSYSLTISRVEAEDVATYYCQQWNSYPLTFGAGTKLELK | 82.1 | 76.1 | 80.8 | 103 | 73.5 | 91.8 | 96.5 | – | – |
| chimeric version of antibody 44 (antibody, V domains shown) VH: QVTLKESGPGILQPSQTLSLTCSFSGFSLSTFGMGVGWIRQPSEKGLEWLAHIWWDDDKYYNPALKSRLTISKDTSKNQIFLKITNVDTAETATYYCSRIGNYGSNYWYFDVWGTGTTVTVSS VL: QIVLTQSPAVMSASPGEKVTMTCTASSSVYYMYWYQQTPGSSPRLLIYDTSNLASGVPVRFSGSGSGTSYSLTISRMEAEDAATYYCQQWNTYPLTFGAGTKLELK | 70.2 | 37.8 | 70.7 | 99.2 | 53.1 | 85.2 | 89.2 | – | – |
| chimeric version of antibody 16 (antibody, V domains shown, Chimeric version made in CHO cells, detected with anti-human IgG; the variable domains are those of clone #16; also called ch16) VH: QVTLKESGPGILQPSQTLSLTCSFSGFSLSTFALGVGWIRQPSGRGLEWLAHIWWDDDKYYNPALKSRLTISKDTSKNHVFLKIANVDTADTATYYCARITTYYYGMDYWGQGTSVTVSS VL: DIVLSQSPATLSVTPGDSVSLFCRASQSIGNHLHWYQQESHASPRLLIKYASQSISGIPSRFSGSGSGTDFTLSINSVETEDFGMYFCQQSYNWPLTFGAGTKLELK | 83.6 | 66 | 73.6 | 101 | 72.3 | 84.3 | 93.7 | binds | no binding (tested: 3 µg/ml) |
| chimeric version of antibody 34 (antibody, V domains shown) VH: QVTLKESGPGILQPSQTLSLTCSFSGFSLSTFSLGVGWIRQSSGKGLEWLAHIWWDDEKYYNPALKSRLTISKDTSKNQVFLKIANVDAADTATYYCARAYYSKSYYALDYWGQGTSVTVSS VL: DIQMTQSPSSLSASLGERVSLTCRASQEISGYLSWLQQKPDGTIKRLIYAASTLDSGVPKRFSGSRSGSDYSLAISSLESEDFADYYCLQYANFPFTFGSGTKLEIK | 66.6 | 30.6 | 76.1 | 98.1 | 45.6 | 82.8 | 87.4 | – | – |
